Experimental data as given in article PMC4075990.

Experiments:
purified protein [1] = substrate: N#Cc1cccnc1; assay: purified protein; conditions: 0.05 M potassium phosphate pH 6.5, 10 nM enzyme, 0.05-0.75 M substrate
purified protein [2] = substrate: N#Cc1cn([C@@H]2O[C@H](CO)[C@@H](O)[C@H]2O)c2ncnc(N)c12; assay: purified protein; conditions: 0.05 M potassium phosphate pH 6.5, 10 nM enzyme, 0.1-2.5 mM substrate

B1: ToyJKL (toyocamycin nitrile hydratase, TNHase) (Streptomyces rimosus) (protein)
chain 1: MSTEHVSLPIAARVRRLEERVIAAGLVTDEQLDTILEHNLSRATPFNGARLVARAWTSPDFRDLLLGEPAAALREMGLDGLLADDEHLRVVANTPTVHNVVVCTLCSCYPVLLLGPSPSWYKSDAYRARVVREPRAVLAEFGTVLPAEVDVRVWDASAEARYMVLPRRPAGTEGLDEEGLAARVTRAGLIGTAPV
chain 2: MGERRFSVGDPVRVRPADPPHHTRVPRYVRGHLGHVVTVQPPCPLPDDVARRRDPFRVLPVYTVRFAARDLWGSGTHLVLIDLWECYLEPAAETARGLGGETS
chain 3: MARLNDIGGTFGYGSIPMDGAEPPHPWRHDWEARVFAVLIGLAMAGVWTASELRDAEERVPPNDYLAASYYERVLMGMELLLDEKGIPSRG
Purified protein [1]
  Km: 99 ± 2 mM
  kcat: 79 ± 5 s⁻¹
  kcat/Km: 800 M⁻¹ s⁻¹
Purified protein [2]
  Km: 2.8 × 10^–2 ± 1 × 10^–3 mM
  kcat: 159 ± 2 s⁻¹
  kcat/Km: 5.7e+06 M⁻¹ s⁻¹
